According to US20170065702A1:
Where two headings read alike, the source gives them in different places.

How the values were obtained:
[1] = biological target: Marburg Ravn GP pin peptide … (Marburg virus, Ravn strain); experiment: pin peptide ELISA, pin D4, supernatant diluted 1/5, read at 1 hour
[2] = biological target: Marburg Ravn GP pin peptide … (Marburg virus, Ravn strain); experiment: pin peptide ELISA, pin D5, supernatant diluted 1/5, read at 1 hour
[3] = biological target: Marburg Ravn GP pin peptide … (Marburg virus, Ravn strain); experiment: pin peptide ELISA, pin D6, supernatant diluted 1/5, read at 1 hour
[4] = biological target: Marburg Ravn GP pin peptide … (Marburg virus, Ravn strain)
[5] = biological target: Marburg Ravn GP pin peptide … (Marburg virus, Ravn strain); experiment: pin peptide ELISA, pin printed as D6 beside … (SEQ ID NO: 195), read at 1 hour

Row | Binder | Absorbance (1 hour) [1] | Absorbance (1 hour) [2] | Absorbance (1 hour) [3] | Absorbance (1 hour) [4] | Absorbance (1 hour) [5]
1 | CAN30G2 (antibody, V domains shown) VH: DVQLVESGGGLVQPGGSRKLSCTASGFTFSSFGMHWVRQAPEKGLEWVAYISSGSSKIYYADTVKGRFTISRDNPKNTLFLQMTSLRSEDTAMYYCARGWYEGAWFAYWGQGTLVTVSA VL: DVLMTQTPLSLPVSLGDQASISCRSSQSIVHSNGDTYLEWYLQKPGQSPKLLIYKVSNRFSGVPDRFSGSGSGTDFTLRISRVEAEDLGVYYCFQGSHFPWTFGGGTKLEIK | 0.848 absorbance | 0.373 absorbance |  |  | 
2 | CAN30G3 (antibody, V domains shown) VH: QVQLKESGPGLVAPSQSLSITCTVSGFSLTDYGITWIRQPPGKGLEWLGVIWGGGSAYYNLVLKSRLSISKDNSKSQVFLKMNSLQTDDTAMYYCAKHRTLITTAMDYWGQGISVTVSS VL: DVLMTQTPLSLPVSLGDQASISCRSSQNIVHSNGNTYLEWYLQKSGQSPKLLIYKVSNRFSGVPDRFSGSGSGTDFTLKISRVEAEDLGVYYCFQGSHFPWTFGGGTKLEIK |  | 1.84 absorbance | 1.12 absorbance |  | 
3 | CAN30G4 (antibody, V domains shown) VH: EVKLVESGGGLVKSGGSLKLSCAVSGFTFSTYAMSWVRQIPEKRLEWVATISNGGSYIYYSDSVKGRFTISRDNAKNTLYLQMSSLRSEDTAMYYCARHRESYRYDWFAYWGQGTLVTVSA VL: DVLMTQTPLSLPVSLGDQASISCRSSQNIVHSDGNTYLEWYLQKPGQSPKLLIYKFSNRFSGVPDRFSGSGSGTDFTLKISRVEAEDLGVYYCFQGSHVPPTFGAGTKLELK |  | 1.97 absorbance |  | > 3.9 absorbance | 
4 | CAN30G5 (antibody, V domains shown) VH: EVQLVESGGGLVQPKGSLKLSCAASGFAFNSYAMHWVCQAPGKGLEWVARIRIKSGNYATSYAGSVTDRFTVSRDDSQNLFYLQMNNLKTEDTAMYYCVREWEGAMDYWGQGTSVTVSS VL: DIVLTQSPLSLPVSLGDQASISCRSSQSLVHSNGNTYLHWYLQKPGQSPNLLIYKVSNRFSGVPDRFSGSGSGTDFTLKISRVEAEDLGVYFCSQSTHVPWTFGGGTKLEIK | 0.631 absorbance |  |  | > 3.9 absorbance | 
5 | CAN54G2 (antibody, V domains shown) VH: QVQLQQSGTELVRPGTSVKISCKASGYDFTNFWLGWIKQRPGHGLEWIGDIYPGGDNTYYNEKFKGKVTLTADKSSNTAYMQFSSLTSEDSAVYFCFMILYTLDYWGQGTSVTVSS VL: not shown |  |  |  |  | 1.85 absorbance
